Measurements from IntAct's records for PubMed 12050133.

B1: Homeobox protein SIX3 (Mus musculus), Q62233 (parent)
chain: MVFRSPLDLYSSHFLLPNFADSHHCSLLLASSGGGSGASGGGGGAGGGGGGNRAGGGGAGGAGGGSGGGGSRAPPEELSMFQLPTLNFSPEQVASVCETLEETGDIERLGRFLWSLPVAPGACEAINKHESILRARAVVAFHTGNFRDLYHILENHKFTKESHGKLQAMWLEAHYQEAEKLRGRPLGPVDKYRVRKKFPLPRTIWDGEQKTHCFKERTRSLLREWYLQDPYPNPSKKRELAQATGLTPTQVGNWFKNRRQRDRAAAAKNRLQHQAIGPSGMRSLAEPGCPTHGSAESPSTAASPTTSVSSLTERADTGTSILSVTSSDSECDV

Variants of: B1
Conditions: with tle4_mouse Tle4, Q62441
tle4_mouse Tle4, Q62441, sequence (Q62441 whole entry): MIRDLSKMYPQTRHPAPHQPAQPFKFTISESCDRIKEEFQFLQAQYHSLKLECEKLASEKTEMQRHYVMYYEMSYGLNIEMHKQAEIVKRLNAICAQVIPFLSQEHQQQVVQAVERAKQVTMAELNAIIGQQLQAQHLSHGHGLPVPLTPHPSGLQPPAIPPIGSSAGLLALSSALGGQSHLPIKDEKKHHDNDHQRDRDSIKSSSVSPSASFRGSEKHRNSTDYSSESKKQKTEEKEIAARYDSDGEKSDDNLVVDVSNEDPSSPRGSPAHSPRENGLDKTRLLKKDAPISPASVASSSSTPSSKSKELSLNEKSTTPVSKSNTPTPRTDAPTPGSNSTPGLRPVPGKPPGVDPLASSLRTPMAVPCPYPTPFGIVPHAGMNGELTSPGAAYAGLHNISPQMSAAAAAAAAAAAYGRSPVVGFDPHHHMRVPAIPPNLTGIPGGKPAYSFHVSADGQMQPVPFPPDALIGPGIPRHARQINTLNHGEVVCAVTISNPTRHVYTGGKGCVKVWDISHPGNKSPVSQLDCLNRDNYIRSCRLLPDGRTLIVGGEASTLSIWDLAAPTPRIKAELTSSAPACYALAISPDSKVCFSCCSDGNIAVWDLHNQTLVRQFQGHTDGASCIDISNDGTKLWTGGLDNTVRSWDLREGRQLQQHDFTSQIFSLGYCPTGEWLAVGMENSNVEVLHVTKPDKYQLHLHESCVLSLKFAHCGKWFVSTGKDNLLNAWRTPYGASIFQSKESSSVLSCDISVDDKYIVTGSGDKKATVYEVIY

Variant	effect of a mutation on the interaction
MVFRSPLDLYSSHFLLPNFADSHHCSLLLASSGGGSGASGGGGGAGGGGGGNRAGGGGAGGAGGGSGGGGSRAPPEELSMFQLPTLNESPEQVASVCETLEETGDIERLGRFLWSLPVAPGACEAINKHESILRARAVVAFHTGNFRDLYHILENHKFTKESHGKLQAMWLEAHYQEAEKLRGRPLGPVDKYRVRKKFPLPRTIWDGEQKTHCFKERTRSLLREWYLQDPYPNPSKKRELAQATGLTPTQVGNWFKNRRQRDRAAAAKNRLQHQAIGPSGMRSLAEPGCPTHGSAESPSTAASPTTSVSSLTERADTGTSILSVTSSDSECDV [F88E]	decreasing interaction
